Measurements published in patent US5019384A, “Immunonodulating compositions and their use” (Massachusetts Institute of Technology, priority 1989, dated 1991).
Entries after “also recorded” stand apart in the source; their conditions may differ.

Legend:
[1] = target: T1, I-A^d (Mus musculus, UniProt P01921+P04228); assay: Gel filtration binding of 125I-labeled peptide to purified Ia (I-A^d)
T1 construct: endogenous in cells
T1 sequence (P04228 24-256): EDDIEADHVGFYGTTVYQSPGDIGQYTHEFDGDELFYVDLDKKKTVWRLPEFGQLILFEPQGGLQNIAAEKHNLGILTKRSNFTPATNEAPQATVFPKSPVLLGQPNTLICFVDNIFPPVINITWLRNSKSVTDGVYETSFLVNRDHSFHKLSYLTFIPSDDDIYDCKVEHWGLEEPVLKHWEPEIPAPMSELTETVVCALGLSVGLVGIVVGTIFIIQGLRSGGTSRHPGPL
T1 sequence (P01921 28-265): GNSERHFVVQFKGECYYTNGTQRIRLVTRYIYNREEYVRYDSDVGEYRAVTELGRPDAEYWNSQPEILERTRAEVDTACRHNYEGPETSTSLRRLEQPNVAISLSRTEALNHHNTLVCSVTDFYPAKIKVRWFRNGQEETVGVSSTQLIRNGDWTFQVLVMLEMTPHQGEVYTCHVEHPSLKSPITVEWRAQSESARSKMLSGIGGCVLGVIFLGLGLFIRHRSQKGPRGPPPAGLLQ
Description: (§1) The peptide P12-26 was modified by the addition of a tyrosine residue to the N-terminus to serve as an acceptor for the ^125 I.
(§2) Ia-molecules were purifed from Nonidet P-40 (NP-40) lysates of A20 (H2^d) or AKTB-1b (H2^k) cells by affinity chromatography using the following monoclonal antibodies: MK-D6 (I-A^d -specific), 10-3-6 (I-A^k -specific) specific) or 14-4-4 (I-E^d/k -specific) coupled to Sepharose 4B beads (Pharmacia Fine Chemicals, Sweden).
(§3) A gel filtration assay was used for determining the degree of association between immunogenic peptides and Ia. The assay is described in: Buus, S. et al., Proceeding of the National Academy of Sciences, U.S.A. (1986) 83:3968, the teaching of which is incorporated herein by reference. Briefly, 40 μmole of purified Ia in 1 percent NP-40/PBS was mixed with 0.2 μmole of ^125 I-labeled peptide (approximately 200,000 cpm for each experiment) and incubated for 48 hours at room temperature to allow for formation of the Ia-peptide complex. The Ia-peptide complexes were separated from free peptide by gel filtration and the percentage of peptide bound to Ia was calculated as the ratio of the ^125 I-labeled peptide in the void volume to the total ^125 I-labeled peptide recovered.

[2] = target: T2, I-A^k (Mus musculus, UniProt P01910+P06343); assay: Gel filtration binding of 125I-labeled peptide to purified Ia (I-A^k)
T2 construct: endogenous in cells
Description: as §1, §2, §3

[3] = target: T3, I-E^d (Mus musculus, UniProt P01904+P01915); assay: Inhibition of binding of 125I-labeled Myoglobin (P132-153) to I-E^d; conditions: 125I Myoglobin (P132-153) bound to I-E^d; read-out: Concentration (μM) of P12-26 Required for 50 percent Inhibition
T3 construct: endogenous in cells
T3 sequence (P01904 26-255): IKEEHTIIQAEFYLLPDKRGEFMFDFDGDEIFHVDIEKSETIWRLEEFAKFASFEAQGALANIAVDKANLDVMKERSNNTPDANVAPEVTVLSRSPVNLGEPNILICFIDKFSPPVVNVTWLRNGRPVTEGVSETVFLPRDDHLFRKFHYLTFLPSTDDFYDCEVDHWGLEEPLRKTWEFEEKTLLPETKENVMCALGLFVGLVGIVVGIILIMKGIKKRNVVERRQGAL
T3 sequence (P01915 27-264 limits assumed): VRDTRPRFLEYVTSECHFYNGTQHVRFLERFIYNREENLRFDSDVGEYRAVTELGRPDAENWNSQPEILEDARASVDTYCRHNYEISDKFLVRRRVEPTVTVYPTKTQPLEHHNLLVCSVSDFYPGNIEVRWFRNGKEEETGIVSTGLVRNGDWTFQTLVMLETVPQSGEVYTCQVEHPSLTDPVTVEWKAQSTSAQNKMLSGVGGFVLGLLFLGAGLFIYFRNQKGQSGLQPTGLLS
Description: as §2
as §3, with “Briefly, 40 μmole of purified Ia in 1 percent NP-40/PBS was mixed with 0.2 μmole of ^125 I-labeled peptide (approximately 200,000 cpm for each experiment) and incubated for 48 hours at room temperature to allow for formation of the Ia-peptide complex.” left out
For the inhibition assay a dose-range of unlabeled cI P12-26 peptide was added to the incubation mixture of Ia and ^125 I-labeled peptide (600, 120, 24, ad 48 μM). The degree of association between Ia and labeled peptide was determined by gel filtration as described in Table 1. […] The concentration of inhibitory peptide required to obtain a 50 percent inhibition of binding was calculated. […]

[4] = target: T2, I-A^k; assay: Inhibition of binding of 125I-labeled Lysozyme (Hen) (P46-61) to I-A^k; conditions: for Competition with the lysozyme-derived peptide for binding to I-A^k (in words): up to 2500 μM
Description: as §2, §3
For the inhibition assay a dose-range of unlabeled cI P12-26 peptide was added to the incubation mixture of Ia and ^125 I-labeled peptide ([…] μM). The degree of association between Ia and labeled peptide was determined by gel filtration as described in Table 1. The percentage of peptide bound in the absence of inhibitors is 10.6 percent for ovalbumin (323 to 339)/I-A^d; 6.5 percent for myoglobulin 132 to 153)/I-E^d; 21.5 percent for lysozyme (46 to 61)/I-A^k; 2.5 percent for cytochrome C (88 to 104)/I-E^k. The concentration of inhibitory peptide required to obtain a 50 percent inhibition of binding was calculated. Each experiment was repeated three times.

[5] = tested on: lymph node-derived T-cells from P12-26 immune mice; assay: Standard lymph node proliferation assay (thymidine incorporation); format: cell-based; conditions: cultured with 10 μM P12-26
Description: The proliferation of these same cultures was not inhibited (75,000 cpm) by a monoclonal antibody, 34-1-4S, which is specific for I-E^d and which inhibits the stimulation of a hemocyanin specific, I-E^d resticted T-cell hybridoma.

[6] = tested on: monoclonal antibody B3.11; assay: Inhibition of monoclonal antibody B3.11 binding to BSA conjugated to P12-26; conditions: BSA conjugated to P12-26 adsorbed to microwells; inhibitors listed in order of decreasing inhibition
Description: Antibody recognition of (NANP)3-12-26 by monoclonal antibodies was studied. The antigen, bovine serum albumin (BSA) conjugated to P12-26 was adsorbed to microwells and horseradish peroxidase (HRP) labeled antibody specific for P12-26 added. In the absence of (NANP)3-12-26 or in the presence of P12-26LF, there is no inhibition of monoclonal antibody B3.11 binding.

[7] = tested on: monoclonal antibody specific for (NANP)50; assay: Inhibition of binding of monoclonal antibody specific for (NANP)50 to (NANP)50; design: species or system mice; conditions: radiolabelled (NANP)50 bound to microwells
Description: The above study was repeated except the antigen was radiolabelled (NANP)50 which was bound to microwells.

[8] = tested on: Lymph node-derived T-cell; assay: Lymph node-derived T-cell proliferation in mice immunized with (NANP)3-12-26; format: in vivo; conditions: eight days after immunization with (NANP)3-12-26
Description: For T-cell proliferation studies 100 μg of (NANP)3-12-26 emulsified in CFA was injected in the base of the tail and also food pad of mice on day 0. […] Cells were seeded at 8×10^5 /well flat bottom microtiter plates 1/2 volume in 0.1 ml RPMI containing 10% FCS, […], penicillin, streptomycin and antigen. On day 2, 1 μCi of ^3 H thymidine (ICN) was added to triplicate or duplicate cultures. 16 hr later cells were harvested and incorporated ^3 H was assayed by scintillation counter.
All T-cell activity is directed to the Class II binding sequence.

**Q.** How did the “Binding to the I-A^d molecule (in words)” value [1] turn out when “P12-26: derived from the cI protein of bacteriophage lambda (residues 12-26)” was run?
**A.** able to bind to both molecules as expected

**Q.** And the “Binding to the I-A^k molecule (in words)” value [2]?
**A.** not bound; also recorded: inability of P12-26 to bind

**Q.** And the IC50 [3]?
**A.** 4 µM

**Q.** What about the IC50 ([4]; 125I Lysozyme (Hen) (P46-61) bound to I-A^k, read-out: Concentration (μM) of P12-26 Required for 50 percent Inhibition) of the same substance?
**A.** > 2500 µM

**Q.** And the “Competition with the lysozyme-derived peptide for binding to I-A^k (in words)” value [4]?
**A.** is not observed

**Q.** And the “Competition with the lysozyme-derived peptide for binding to I-A^k (in words)” value ([4]; listed as P1226)?
**A.** No inhibition of binding was detected

**Q.** And the “Proliferation (thymidine incorporation)” value [5]?
**A.** 68,000 cpm

**Q.** What about the “Inhibition of monoclonal antibody B3.11 binding” value [6] of the same substance?
**A.** Inhibition is observed

**Q.** And the “Inhibition of binding of monoclonal antibody specific for (NANP)50” value [7]?
**A.** did not inhibit binding

**Q.** What about the “T-cell proliferation by thymidine incorporation on culture with peptide” value [8] of the same substance?
**A.** T-cell proliferation as assayed by thymidine incorporation was seen
